Test results taken from patent US20230212291A1 (BEIGENE, published 2023).

Target: T1, full-length human OX40 expressed on HuT78 cells (HuT78/OX40) (human, UniProt P43489 29-277)
T1 sequence: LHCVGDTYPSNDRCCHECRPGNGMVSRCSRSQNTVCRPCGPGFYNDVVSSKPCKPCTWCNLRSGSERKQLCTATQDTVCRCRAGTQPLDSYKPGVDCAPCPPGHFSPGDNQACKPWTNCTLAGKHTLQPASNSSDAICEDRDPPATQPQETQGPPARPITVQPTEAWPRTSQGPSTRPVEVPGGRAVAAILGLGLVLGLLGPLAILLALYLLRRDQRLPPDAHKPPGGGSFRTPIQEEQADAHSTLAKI
Experiment: cell-based or functional assay

B1: 445-3 (antibody, human IgG1, V domains shown)
VH: QVQLVQSGAEVKKPGSSVKVSCKASGYKFTSYIIHWVRQAPGQGLEWMGYINPYNEGTRYNQKFQGRVTLTADKSTSTAYMELSSLRSEDTAVYYCARGYYGSSYAMDYWGQGTTVTVSS
VL: DIQMTQSPSSLSASVGDRVTITCRASQGISNYLNWYQQKPDGAIKLLIYDASTLYSGVPSRFSGSGSGTDFTLTISSLQPEDFATYYCQQYSKLPYTFGGGTKVEIK
- ADCC (LDH release), NK92MI/CD16V effector cells, HuT78/OX40 target cells (EC50): 27 ng/mL
- IL-2 production by HuT78/OX40 cells co-cultured with HEK293/OS8Low-FcγRI cells (EC50): 0.06 ng/mL
